Reference: the supplement of paper PMC10126150
± gives the standard deviation of the averaged measurements.

Tested on: ATP
Assay: switch fluorescence ratio, 500 uM ATP over buffer (Cy3 cluster intensity, sum of 5 cycles each) (fold (ratio)); higher = stronger signal-on switching upon ATP binding; sequences stand for … in TCGTCGGCAGCGTCAGATGTGTATAAGAGACAGTTTTTTTTTTTTTTTTTTTTTTTTT…TC
Settings: aptamer strand: ATP DNA aptamer (quencher-CACCTGGGGGAGTATTGCGGAGGAAGG + anchor), 100 nM annealed; ATP concentration: 500 uM
Method in brief: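 Imaging in selection buffer was followed by imaging after 15 min with 500 uM ATP at 22 °C, for Cy3-labelled switching-strand clusters annealed to 100 nM quencher-labelled ATP aptamer on a modified Illumina MiSeq flow-cell. Five of these buffer/ATP cycles ran, separated by NaOH stripping and re-annealing. The fluorescence ratio per cluster is summed target-cycle over summed buffer-cycle Cy3 intensity, averaged per switch-domain sequence; clusters outside 100-1000 RFU were removed.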
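Also: ATP exposure 15 min at 22 °C before imaging.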

| Sequence | switch fluorescence ratio |
| --- | --- |
| GTAGCTGGGG | 0.98 ± 0.011 |
| GTAGGACATC | 1.01 ± 0.023 |
| GTAGGGAAAG | 1.009 ± 0.0087 |
| GTAGGGATTA | 0.9779 ± 0.0064 |
| GTAGGGGGTG | 1.02 ± 0.065 |
| GTAGGGGTTC | 0.982 ± 0.042 |
| GTAGGTAAGC | 1.03 ± 0.057 |
| GTAGGTAGGT | 0.99 ± 0.024 |
| GTAGGTTTGA | 0.994 ± 0.012 |
| GTAGTAAAAC | 1.69 ± 0.087 |
| GTAGTAAGAT | 1.07 ± 0.064 |
| GTAGTAGCTT | 1.017 ± 0.003 |
| GTAGTATTAG | 1.032 ± 0.0043 |
| GTAGTGCGGG | 0.9536 ± 0.0014 |
| GTAGTGGGGT | 0.987 ± 0.016 |
| GTAGTGTGGT | 0.999 ± 0.012 |
| GTAGTTTGCG | 0.928 ± 0.12 |
| GTAGTTTTAC | 1.042 ± 0.0071 |
| GTATAAAACT | 0.9986 ± 0.0087 |
| GTATAAATGC | 0.988 ± 0.046 |
| GTATAGGGGC | 0.977 ± 0.025 |
| GTATATAAGT | 0.98 ± 0.013 |
| GTATCAACGG | 1.034 ± 0.0028 |
| GTATGAAAAG | 0.9736 ± 0.0061 |
| GTATGAAGGG | 0.9756 ± 0.0049 |

| Sequence | switch fluorescence ratio |
| --- | --- |
| GTATGAGGTG | 1.02 ± 0.044 |
| GTATGCGAGG | 1 ± 0.08 |
| GTATGGCGGG | 1.008 ± 0.0032 |
| GTATGGGATG | 0.993 ± 0.015 |
| GTATGGGCGG | 0.991 ± 0.035 |
| GTATGGGGTT | 0.9641 ± 0.0085 |
| GTATGTGGGG | 0.996 ± 0.038 |
| GTATTAATAT | 1.01 ± 0.04 |
| GTATTAATGT | 1.01 ± 0.011 |
| GTATTAGCTG | 0.974 ± 0.0089 |
| GTATTAGTAA | 1.006 ± 0.0038 |
| GTATTAGTGT | 1.006 ± 0.0073 |
| GTATTATCTG | 0.9495 ± 0.0038 |
| GTATTGGGGG | 1.01 ± 0.043 |
| GTATTGGGTA | 0.99 ± 0.028 |
| GTATTTACTT | 1.02 ± 0.012 |
| GTATTTATGA | 0.974 ± 0.0056 |
| GTATTTGAGT | 0.991 ± 0.0031 |
| GTCAAATGGT | 0.972 ± 0.021 |
| GTCAATTTGA | 0.978 ± 0.062 |
| GTCACCAGAT | 1.002 ± 0.0077 |
| GTCACTATTG | 1.02 ± 0.0022 |
| GTCAGTATAA | 1.03 ± 0.059 |
| GTCAGTGGGG | 1.02 ± 0.052 |
| GTCAGTGGGT | 0.9682 ± 0.0079 |

| Sequence | switch fluorescence ratio |
| --- | --- |
| GTCATAGTTA | 0.983 ± 0.017 |
| GTCATGAGCG | 1 ± 0.012 |
| GTCATTTGTA | 0.9813 ± 0.0074 |
| GTCCAAAAAA | 1.08 ± 0.067 |
| GTCCGTGTTA | 0.994 ± 0.037 |
| GTCGAAGCCC | 1.03 ± 0.022 |
| GTCGCAAGTT | 1.01 ± 0.018 |
| GTCGCTAATG | 0.996 ± 0.016 |
| GTCGGATGCT | 1.02 ± 0.047 |
| GTCGGCAGGG | 1.06 ± 0.014 |
| GTCGGCGTAA | 0.9982 ± 0.0045 |
| GTCGGGAAGG | 1.013 ± 0.0026 |
| GTCGGGAGGA | 0.998 ± 0.025 |
| GTCGGTATTA | 0.984 ± 0.034 |
| GTCGTAATTG | 1.02 ± 0.016 |
| GTCGTAGCGA | 1.24 ± 0.016 |
| GTCGTAGTAC | 1.1974 ± 0.00024 |
| GTCGTATGAC | 1.08 ± 0.042 |
| GTCGTATTAG | 0.995 ± 0.022 |
| GTCGTCGGAG | 1.03 ± 0.019 |
| GTCGTCGTCG | 0.972 ± 0.012 |
| GTCGTCTAAG | 0.973 ± 0.051 |
| GTCTAAACTT | 1.01 ± 0.013 |
| GTCTAAGGGG | 1.11 ± 0.25 |
| GTCTCAAAGA | 1.017 ± 0.0083 |

| Sequence | switch fluorescence ratio |
| --- | --- |
| GTCTGGGGGA | 1.03 ± 0.042 |
| GTCTTGGCTC | 1.02 ± 0.031 |
| GTGAAAAACT | 1.03 ± 0.033 |
| GTGAAAACGT | 1.04 ± 0.035 |
| GTGAAAGATT | 1.02 ± 0.041 |
| GTGAAAGGAG | 0.997 ± 0.039 |
| GTGAAAGGGG | 1.11 ± 0.17 |
| GTGAAAGGGT | 1.02 ± 0.015 |
| GTGAAGGGGA | 1.09 ± 0.11 |
| GTGAAGGGTA | 0.985 ± 0.0081 |
| GTGAATCGGG | 0.973 ± 0.032 |
| GTGACATGGA | 1 ± 0.014 |
| GTGACCGGGA | 1 ± 0.027 |
| GTGACGAGGG | 0.981 ± 0.013 |
| GTGAGAGCGG | 0.963 ± 0.033 |
| GTGAGATCGG | 0.991 ± 0.029 |
| GTGAGATGGA | 0.953 ± 0.03 |
| GTGAGATGGG | 0.984 ± 0.03 |
| GTGAGATGTA | 0.991 ± 0.045 |
| GTGAGCCACG | 0.9932 ± 0.0014 |
| GTGAGGAGGG | 0.959 ± 0.07 |
| GTGAGGCCCC | 1 ± 0.02 |
| GTGAGGGTTG | 0.975 ± 0.03 |
| GTGAGGTTTT | 0.985 ± 0.021 |
| GTGAGTTGCT | 1.002 ± 0.005 |
